Reference: patent US20160184454A1, “RAB7L1 INTERACTS WITH LRRK2 TO MODIFY INTRANEURONAL PROTEIN SORTING AND PARKINSON'S DISEASE RISK” (THE TRUSTEES OF COLUMBIA UNIVERSITY IN THE CITY OF NEW YORK, priority 2013, published 2016)

Key:
[1] = test system: Lrrk mutant (−/−) Drosophila; assay: Negative geotaxis analysis of lrrk mutant Drosophila; format: in vivo; conditions: pan-neuronal expression in lrrk mutant (−/−) Drosophila
Procedure: FIG. 11 is a bar graph showing a negative geotaxis analysis of lrrk mutant Drosophila. […] Bars represent Mean times to climb 10 cm upward in a cylinder are represented. Error bars are SEM. ***: p<0.001, for comparison with the non-transgenic group by ANOVA (df=3, F=13.14) followed by Tukey HSD post hoc analysis.
Drosophila were cultured by standard methods on yeast-cornmeal-agar medium at 25° C. Wild-type and mutant G2019S LRRK2 transgenes were expressed specifically in catecholaminergic neurons, including dopamine neurons, using the Gal4-UAS system described (Fischer et al., 1988). Driver lines used include OK6 (motor neuron), Gmr (eye), G14 (muscle), TH (dopaminergic neuron), and DDC (dopaminergic neuron). A UAS-GFP::nuclear localization sequence (NLS) marker was used to visualize nucleii of cells in which trangenes were expressed (stock 4775 (w 1118; P{UAS-GFP.nls}14), Drosophila Stock Center, Bloomington, Ind.). For the RAB screen, UAS-LRRK2 (G2019S) transgenic Drosophila, crossed with the TH-Gal4 driver, were screened against a UAS-Rab transgenic library (Zhang et al., 2007). Crossings were typically performed using standard balancer chromosome techniques. […] For mortality curves, transgenic Drosophila surviving through adult metamorphosis were counted daily, from the day of pupal eclosion onward. Locomotion deficits were assessed by methods know in the art.

[2] = test system: Drosophila model of LRRK2 G2019S neurodegeneration; assay: Drosophila adult survival: Rab modifier screen of the LRRK2 G2019S early adult lethality phenotype; format: in vivo; conditions: for Average adult lifespan: TH-driven Rab GTPase transgene co-expressed with LRRK2 G2019S in Drosophila dopamine neurons, days post-eclosion; for rescue of the LRRK2 G2019S premature mortality phenotype (survival): co-expression with LRRK2 G2019S in Drosophila dopamine neurons
Source text: To pursue potential mechanisms of LRRK2 pathology in vivo, a Drosophila model was established. […] Dopamine neuron-selective expression of human familial PD-associated G2019S-mutant LRRK2—using either a tyrosine hydroxylase (TH) (Friggi-Grelin et al., 2003) or dopa decarboxylase (DDC) promoter-Gal4 driver (Fischer et al., 1988)—induced premature mortality of young adult animals (FIG. 4A; nontransgenic mean lifespan 37.1 days+/−1; G2019S mean lifespan 4.8 days+/−0.2), akin to previous reports (Ng et al., 2009).
Subsequently a targeted screen for potential genetic modifiers of the LRRK2 G2019S mutant phenotype was performed, based on the idea that LRRK2 may modify a specific intracellular trafficking process, and focused on RAB7L1. A series of 16 Drosophila Rab genes, (see Table 4; out of 33 identified in Drosophila), or CA or IN forms of these (Zhang et al., 2007), were investigated.
Briefly, LRRK2 G2019S mutants were mated with a panel of previously described transgenic Drosophila strains that allow for overexpression of wild-type (WT) or constitutively active (CA), forms of the Rab genes (Zhang et al., 2007), using a standard balancer chromosome-based mating scheme. Co-expression of a majority of these Rab transgenes with LRRK2 within dopamine neurons produced no effect on the survival of animals co-expressing LRRK2 G2019S (FIG. 4A; Table 4).
Drosophila were cultured by standard methods on yeast-cornmeal-agar medium at 25° C. Wild-type and mutant G2019S LRRK2 transgenes were expressed specifically in catecholaminergic neurons, including dopamine neurons, using the Gal4-UAS system described (Fischer et al., 1988). Driver lines used include OK6 (motor neuron), Gmr (eye), G14 (muscle), TH (dopaminergic neuron), and DDC (dopaminergic neuron). A UAS-GFP::nuclear localization sequence (NLS) marker was used to visualize nucleii of cells in which trangenes were expressed (stock 4775 (w 1118; P{UAS-GFP.nls}14), Drosophila Stock Center, Bloomington, Ind.). For the RAB screen, UAS-LRRK2 (G2019S) transgenic Drosophila, crossed with the TH-Gal4 driver, were screened against a UAS-Rab transgenic library (Zhang et al., 2007). Crossings were typically performed using standard balancer chromosome techniques. To generate strains in which the homozygous LRRK2 transgene and another (Driver or marker) transgene lay on the same chromosome (III), genetic recombination was using standard techniques. Adult Drosophila mushroom bodies were dissected as in (Wu and Luo, 2006) and imaged immediately, without fixation, using a Zeiss LSM510 Meta confocal fluorescent microscope. For mortality curves, transgenic Drosophila surviving through adult metamorphosis were counted daily, from the day of pupal eclosion onward. Locomotion deficits were assessed by methods know in the art.

[3] = test system: rat primary cortical neurons; assay: Neurite length assay in transfected primary cortical neuron cultures; format: cell-based; conditions: co-transfection with LRRK2 G2019S (0.5 μg/well); test vector 1 μg/well
Source text: As 5 candidate genes are present within the PARK16 locus (SLC45A3, NUCKS, RAB7L1, SLC41A1, and PM20D1), each of the genes were experimentally screened for a functional interaction with LRRK2 (FIG. 2A). A previously-described primary rat neuron in vitro culture model was used, in which transient expression of familial PD-associated LRRK2 G2019S or R1441C mutant alleles leads to a marked reduction in neurite process length (MacLeod et al., 2006). […] RAB7L1 is a small cytosolic GTPase, structurally distinct from RAB7 despite its name (also known as RAB29) (Shimizu et al., 1997). […] But the function of RAB7L1 in CNS neurons remains unknown. Orthologues of RAB7L1 in other organisms, including C. elegans Glo-1 and Drosophila melanogaster Lighloid, have been implicated in trafficking to lysosome-related organelles (Hermann et al., 2005) and in the regulation of neurite process length (Grill et al., 2007), reminiscent of LRRK2 mutant phenotypes (MacLeod et al., 2006). Thus this gene was of particular interest.
Sprague-Dawley rat or mouse PI primary dissociated cortical cultures were prepared and transfected essentially as described (Xia et al., 1996) with the following modifications: cells were plated at high density, approximately 250,000 cells/cm2, in 24-well plates with 500 ul medium/well. Culture medium used for plating cells was Neurobasal-A supplemented with 2% B-27 and 10% FBS. At 1 day after plating, medium was changed to reduced serum (1% FBS+added antimitotic agents: 70 μM uridine and 25 μM 5-fluorodeoxyuridine) and replaced weekly thereafter; for transfections no DMSO was added to the transfection mixture, cells were not subjected to glycerol shock, and a total of 3 μg plasmid DNA was used per well. Cells were fixed in 4% PFA and immunostained with mouse α-RAB7L1 (Santa Cruz, 1:100), and rabbit monoclonal α-LRRK2 (Michal J. Fox Foundation MJFF4, 1:100), then with appropriate fluorescent secondaries (Jackson, 1:1000-2000). Neurite length and neurite puncta (defined as swellings greater than 2 um in diameter) were counted for at least 20 neurons per condition. Mean puncta number per neuron was normalized to total average neurite length versus wild-type LRRK2 transfected cells. Fluorescent microscopy was performed using a Nikon TE 2000-S microscope and a Zeiss LSM510 Meta confocal microscope. Images were analyzed using Image-Pro Plus (Mediacybernetics) software version 5.1.0.20.

human LRRK2 WT: wild-type human LRRK2 transgene
defective negative geotaxis (time to climb 10 cm) [1]: can be rescued | phenotype on transgenic expression ([2]; dopamine neuron-selective expression of the LRRK2 transgene alone): did not lead to a discernible phenotype

SLC41A1: PARK16 locus gene overexpression vector
LRRK2 mutation-induced neurite length phenotype [3]: failed to rescue

G2019S: human familial PD-associated G2019S-mutant LRRK2 transgene
defective negative geotaxis (time to climb 10 cm) [1]: can be rescued | mean lifespan ([2]; dopamine neuron-selective expression of the LRRK2 transgene alone (TH or DDC Gal4 driver)): 4.8 days

B1: Rab7WT: TH-driven Drosophila Rab GTPase transgene, wild-type Rab7 (protein, UniProt O76742 1-207, looked up)
Ras-related protein Rab7: MSGRKKSLLKVIILGDSSVGKTSLMNQYVNKRFSNQYKATIGADFCTKEVVVNDRVVTMQIWDTAGQERFQSLGVAFYRGADCCVLVYDVTAPNSFKNLDSWRDEFLIQASPRDPDHFPFVVLGNKVDLDNRQVSTRRAQQWCQSKNDIPYYETSAKEGINVEMAFQVIAKNALELEAEAEVINDFPDQITLGSQNNRPGNPDNCQC
mean lifespan ([2]; Rab transgene co-expressed with LRRK2 G2019S in dopamine neurons): 14.3 days | Average adult lifespan [2]: 10.2 days | rescue of the LRRK2 G2019S premature mortality phenotype (survival) [2]: statistically significant—albeit much weaker—survival benefit

B2: SLC45A3: PARK16 locus gene overexpression vector (protein, UniProt Q96JT2 1-553, looked up)
Solute carrier family 45 …: MVQRLWVSRLLRHRKAQLLLVNLLTFGLEVCLAAGITYVPPLLLEVGVEEKFMTMVLGIGPVLGLVCVPLLGSASDHWRGRYGRRRPFIWALSLGILLSLFLIPRAGWLAGLLCPDPRPLELALLILGVGLLDFCGQVCFTPLEALLSDLFRDPDHCRQAYSVYAFMISLGGCLGYLLPAIDWDTSALAPYLGTQEECLFGLLTLIFLTCVAATLLVAEEAALGPTEPAEGLSAPSLSPHCCPCRARLAFRNLGALLPRLHQLCCRMPRTLRRLFVAELCSWMALMTFTLFYTDFVGEGLYQGVPRAEPGTEARRHYDEGVRMGSLGLFLQCAISLVFSLVMDRLVQRFGTRAVYLASVAAFPVAAGATCLSHSVAVVTASAALTGFTFSALQILPYTLASLYHREKQVFLPKYRGDTGGASSEDSLMTSFLPGPKPGAPFPNGHVGAGGSGLLPPPPALCGASACDVSVRVVVGEPTEARVVPGRGICLDLAILDSAFLLSQVAPSLFMGSIVQLSQSVTAYMVSAAGLGLVAIYFATQVVFDKSDLAKYSA
LRRK2 mutation-induced neurite length phenotype [3]: failed to rescue

B3: PM20D1: PARK16 locus gene overexpression vector (protein, UniProt Q6GTS8 26-502, looked up)
N-fatty-acyl-amino acid …: MGPRSGEHQRASRIPSQFSKEERVAMKEALKGAIQIPTVTFSSEKSNTTALAEFGKYIHKVFPTVVSTSFIQHEVVEEYSHLFTIQGSDPSLQPYLLMAHFDVVPAPEEGWEVPPFSGLERDGIIYGRGTLDDKNSVMALLQALELLLIRKYIPRRSFFISLGHDEESSGTGAQRISALLQSRGVQLAFIVDEGGFILDDFIPNFKKPIALIAVSEKGSMNLMLQVNMTSGHSSAPPKETSIGILAAAVSRLEQTPMPIIFGSGTVVTVLQQLANEFPFPVNIILSNPWLFEPLISRFMERNPLTNAIIRTTTALTIFKAGVKFNVIPPVAQATVNFRIHPGQTVQEVLELTKNIVADNRVQFHVLSAFDPLPVSPSDDKALGYQLLRQTVQSVFPEVNITAPVTSIGNTDSRFFTNLTTGIYRFYPIYIQPEDFKRIHGVNEKISVQAYETQVKFIFELIQNADTDQEPVSHLHKL
LRRK2 mutation-induced neurite length phenotype [3]: failed to rescue

B4: RAB3A: Rab family member expression vector (protein, UniProt P20336 1-220, looked up)
Ras-related protein Rab-3A: MASATDSRYGQKESSDQNFDYMFKILIIGNSSVGKTSFLFRYADDSFTPAFVSTVGIDFKVKTIYRNDKRIKLQIWDTAGQERYRTITTAYYRGAMGFILMYDITNEESFNAVQDWSTQIKTYSWDNAQVLLVGNKCDMEDERVVSSERGRQLADHLGFEFFEASAKDNINVKQTFERLVDVICEKMSESLDTADPAVTGAKQGPQLSDQQVPPHQDCAC
LRRK2 mutation-induced neurite length phenotype [3]: failed to rescue the phenotype

B5: NUCKS1: PARK16 locus gene overexpression vector (protein, UniProt Q9H1E3 1-243, looked up)
Nuclear ubiquitous casein and …: MSRPVRNRKVVDYSQFQESDDADEDYGRDSGPPTKKIRSSPREAKNKRRSGKNSQEDSEDSEDKDVKTKKDDSHSAEDSEDEKEDHKNVRQQRQAASKAASKQREMLMEDVGSEEEQEEEDEAPFQEKDSGSDEDFLMEDDDDSDYGSSKKKNKKMVKKSKPERKEKKMPKPRLKATVTPSPVKGKGKVGRPTASKASKEKTPSPKEEDEEPESPPEKKTSTSPPPEKSGDEGSEDEAPSGED
LRRK2 mutation-induced neurite length phenotype [3]: failed to rescue

B6: RAB5A: Rab family member expression vector (protein, UniProt P20339 1-215, looked up)
Ras-related protein Rab-5A: MASRGATRPNGPNTGNKICQFKLVLLGESAVGKSSLVLRFVKGQFHEFQESTIGAAFLTQTVCLDDTTVKFEIWDTAGQERYHSLAPMYYRGAQAAIVVYDITNEESFARAKNWVKELQRQASPNIVIALSGNKADLANKRAVDFQEAQSYADDNSLLFMETSAKTSMNVNEIFMAIAKKLPKNEPQNPGANSARGRGVDLTEPTQPTRNQCCSN
LRRK2 mutation-induced neurite length phenotype [3]: failed to rescue the phenotype

B7: Rab7L1WT: TH-driven wild-type Drosophila RAB7L1 orthologue (termed lightoid) transgene (protein)
chain: MGSRDHLFKVLVVGDAAVGKTSLVQRYSQDSFSKHYKSTVGVDFALKVLQWSDSEMVRLQLWDIAGQERFTSMTRLYYRDASACVIMFDVTNATTFSNSQRWKQDLDSKLTLPSGEPVPCLLLANKSDLSPWAVSRDQIDRFSKENGFTGWTETSVKENKNINEAMRVLVEKMMNNSREDIMSSSTQGNYINLQTKPSPGWTCC
modifications: left off: large carriers
notes: TH-driven wild-type Drosophila RAB7L1 orthologue (termed lightoid) transgene
Average adult lifespan [2]: 23.3 days | rescue of the LRRK2 G2019S premature mortality phenotype (survival) [2]: dramatic rescue
